In patent US20090011988A1 (Genentech, published 2009):
Positions of bridges follow the written chain, without caps; N, C: chain ends. No end group written: not given here. suc = not defined here

Columns and labels:
human IGFBP-1 [1] = target: T1, human IGFBP-1 (human, UniProt P08833 26-259); assay: competitive phage ELISA
T1 sequence (looked up): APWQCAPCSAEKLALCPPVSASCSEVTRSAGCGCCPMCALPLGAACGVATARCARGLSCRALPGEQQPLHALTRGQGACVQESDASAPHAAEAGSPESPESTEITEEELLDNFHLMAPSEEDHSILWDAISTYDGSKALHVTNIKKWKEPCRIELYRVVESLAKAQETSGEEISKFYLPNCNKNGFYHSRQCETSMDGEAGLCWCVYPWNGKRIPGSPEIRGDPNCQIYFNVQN
Description: E. coli cells (XL1-Blue, Stratagene) freshly transformed with phagemid vector were grown overnight in 5 mL 2YT medium (Sambrook et al., supra) in the presence of M13-VCS helper phage (Stratagene). Phage particles were harvested and resuspended in PBS buffer as described in Lowman, H. B., “Phage Display of Peptide Libraries on Protein Scaffolds,” in Cabilly, S. (ed.), Combinatorial Peptide Library Protocols (Humana Press Inc.: Totowa, N.J., 1998), pp. 249-264. Then phage concentrations were normalized to yield a maximal ELISA signal of 0.2-0.4 for each mutant (Lowman, in Cabilly, S. (ed.), supra). Threefold serial dilutions of soluble competitor were prepared on non-absorbent microtiter plates (Nunc, F, 96 wells) with binding buffer (0.5% TWEEN 20%/PBS) containing phage at the previously determined concentrations. […] After blocking, the plates containing immobilized target were washed with 0.05% TWEEN™/PBS buffer and subsequently incubated with 80 μl/well of the premixed phage-competitor solutions for 1 hour at room temperature. […] IC₅₀ values were determined by fitting the binding data to a generic saturation curve (Lowman, in Cabilly, S. (ed.), supra). At least two individual clones of each IGF-1 mutant were assayed. Numbers in Table XIII represent mean±standard deviation of individually assessed IC₅₀ values.

human IGFBP-1 [2] = target: T1, human IGFBP-1; assay: competitive phage ELISA, value as restated in Table XIV (Table XIII prints 7.0 for the same pair)
[3] = target: IGF-1 G1S-A70V displayed on phage (human; bacteriophage M13); assay: competitive phage ELISA: phage on an IGFBP-3-coated plate (1 µg/ml), competed by soluble IGFBP-3; OD492, mean ± SD, n=2
[4] = target: IGF-1 G1S-A70V displayed on phage (human; bacteriophage M13); assay: competitive phage ELISA: phage displaying G1S-A70V IGF-1 on an IGFBP-3-coated plate (1 µg/ml), competed by soluble IGFBP-3; OD492
[5] = target: IGF-1 G1S-A70V displayed on phage (human; bacteriophage M13); assay: competitive phage ELISA: phage on an IGFBP-3-coated plate (1 µg/ml), competed by soluble IGFBP-1; OD492, mean ± SD, n=2
[6] = target: IGF-1 G1S-A70V displayed on phage (human; bacteriophage M13); assay: competitive phage ELISA: phage displaying G1S-A70V IGF-1 on an IGFBP-1-coated plate (1 µg/ml), competed by soluble IGFBP-1; OD492
[7] = target: T2, recombinant human IGFBP-3 (human, UniProt P17936 28-291); assay: phage ELISA: titration of g8 peptide-phage on an IGFBP-3-coated plate without IGF-1; OD492
Description: The plates were then washed ten times, as above, and a solution of rabbit anti-phage antibody mixed with a goat-anti-rabbit conjugate of horseradish peroxidase was added. After an incubation of 1 hour at room temperature, the plates were developed with a chromogenic substrate, o-phenylenediamine (Sigma). The reaction was stopped with addition of ½ volume of 2.5 M H₂SO₄. Optical density at 490 nm was measured on a spectrophotometric plate reader.

human IGFBP-1 [8] = target: T1, human IGFBP-1; assay: BIAcore inhibition assay; reference
human IGFBP-1 [9] = target: T1, human IGFBP-1; assay: BIAcore inhibition assay
human IGFBP-1 [10] = target: T1, human IGFBP-1; assay: BIAcore inhibition assay; remark: listed apart in the source
Description: Peptides were assayed in a BIAcore™ assay as described in WO 98/45427, supra.

human IGFBP-1 [11] = target: T1, human IGFBP-1; assay: inhibition assays
human IGFBP-1 [12] = target: T1, human IGFBP-1; assay: BIAcore kinetics, IGFBP-1 coupled to chip
Description: For each dilution of peptides, a global fit of the sensorgram data was performed using a 1:1 Langmuir binding model.

human IGFBP-1 [13] = target: T1, human IGFBP-1; assay: BIAcore inhibition, 9-10 nM IGFBP-1 to immobilized IGF-1
[14] = target: T2, recombinant human IGFBP-3; assay: BIAcore competition, IGFBP-3 to IGF-1
human IGFBP-1 [15] = target: T1, human IGFBP-1; assay: ELISA inhibition assay

T2 sequence (P17936 28-291 limits assumed): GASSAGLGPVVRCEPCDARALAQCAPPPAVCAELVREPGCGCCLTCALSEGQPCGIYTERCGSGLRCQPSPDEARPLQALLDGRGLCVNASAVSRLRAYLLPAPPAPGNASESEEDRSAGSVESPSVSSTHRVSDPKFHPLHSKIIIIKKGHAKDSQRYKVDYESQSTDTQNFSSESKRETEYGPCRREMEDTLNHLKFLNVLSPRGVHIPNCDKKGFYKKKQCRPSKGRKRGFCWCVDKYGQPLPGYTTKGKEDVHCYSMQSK

IGF-1 F16A displayed on phage (from UniProt P69168 267-424) (ligand)
relative IC50 (mut/G1S-A70V) (human IGFBP-1 [1]): 7 | relative IC50 (mut/G1S-A70V) (human IGFBP-1 [2]): 6

recombinant human IGFBP-3 (from UniProt P17936 28-291)
IC50 (read off the curve) [3]: 0.7 nM | IC50 [4]: 0.5 nM

B1: human IGFBP-1 (protein, UniProt P08833 26-259, looked up)
chain: APWQCAPCSAEKLALCPPVSASCSEVTRSAGCGCCPMCALPLGAACGVATARCARGLSCRALPGEQQPLHALTRGQGACVQESDASAPHAAEAGSPESPESTEITEEELLDNFHLMAPSEEDHSILWDAISTYDGSKALHVTNIKKWKEPCRIELYRVVESLAKAQETSGEEISKFYLPNCNKNGFYHSRQCETSMDGEAGLCWCVYPWNGKRIPGSPEIRGDPNCQIYFNVQN
IC50 (read off the curve) [5]: 8 nM | IC50 [6]: 8.5 nM

B2: peptide-phage clone 4D3.5 (g8 display) (peptide, not shown: large carriers)
chain: WFKTVCYEWEDEVQCYTLEE
modifications: not fully specified (bridges); cysteine pairing not given here; also: polyvalent display on M13 phage, fused via linker to g8p
notes: polyvalent display on M13 phage
binding result [7]: binds

CRAGPLQWLCEKYFG (disulfide 1-10) [BP1-01]
fold potency reduction, IC50 (BP1-01)/IC50 (mut) (human IGFBP-1 [8]): 1

Ac-LEWLAEKYEG (linker 2-9 via 1,5‑diaminopentane) [(i+7)B]
binding result (human IGFBP-1 [9]): no binding (tested: >360-fold weaker than BP1-01) | fold potency reduction, IC50 (BP1-01)/IC50 (mut) (human IGFBP-1 [10]): > 360

EARVCRAGPLQWLCEKYFSTY (disulfide 5-14) [BP1-25]
fold affinity improvement over BP1-16 (human IGFBP-1 [11]): ~20 fold | Kd (human IGFBP-1 [12]): 42 nM

GQQSCAAGPLQWLCEHYFSTYGR (not fully specified (bridges); cysteine pairing not given here) [BP1-625]
fold improved potency over BP1-01 (human IGFBP-1 [13]): ~20 fold

suc-CQLVRPDLLLCQ-NH2 (disulfide 1-11; reading uncertain, also called phage parent t4H3.6) [BP3-107]
IC50 [14]: 100000 nM

suc-IPVSPDWFVCQ-NH2 (reading uncertain, also called phage parent t4H3.9) [BP3-108]
IC50 [14]: 20000 nM

CRAGPLQWRCEKYF (disulfide 1-10, also called BP1-16 L9R) [BP1-26]
binding result (human IGFBP-1 [15]): no binding (tested: >570-fold the IC50 of BP1-16)

CRAGPRQWLCEKYF (disulfide 1-10, also called BP1-16 L6R) [BP1-32]
binding result (human IGFBP-1 [15]): no binding (tested: >1000-fold the IC50 of BP1-16)
